Source: patent US20150158938A1 (SNU R AND DB FOUNDATION, published 2015)

Target: T1, vascular endothelial growth factor receptor-2 (VEGFR2) on HUVEC (human, UniProt P35968 20-1356)
T1 construct: whole, on cells
Experiment: flow cytometry on HUVEC (express VEGFR2), FITC anti-His detection

T1 sequence (P35968 20-1356): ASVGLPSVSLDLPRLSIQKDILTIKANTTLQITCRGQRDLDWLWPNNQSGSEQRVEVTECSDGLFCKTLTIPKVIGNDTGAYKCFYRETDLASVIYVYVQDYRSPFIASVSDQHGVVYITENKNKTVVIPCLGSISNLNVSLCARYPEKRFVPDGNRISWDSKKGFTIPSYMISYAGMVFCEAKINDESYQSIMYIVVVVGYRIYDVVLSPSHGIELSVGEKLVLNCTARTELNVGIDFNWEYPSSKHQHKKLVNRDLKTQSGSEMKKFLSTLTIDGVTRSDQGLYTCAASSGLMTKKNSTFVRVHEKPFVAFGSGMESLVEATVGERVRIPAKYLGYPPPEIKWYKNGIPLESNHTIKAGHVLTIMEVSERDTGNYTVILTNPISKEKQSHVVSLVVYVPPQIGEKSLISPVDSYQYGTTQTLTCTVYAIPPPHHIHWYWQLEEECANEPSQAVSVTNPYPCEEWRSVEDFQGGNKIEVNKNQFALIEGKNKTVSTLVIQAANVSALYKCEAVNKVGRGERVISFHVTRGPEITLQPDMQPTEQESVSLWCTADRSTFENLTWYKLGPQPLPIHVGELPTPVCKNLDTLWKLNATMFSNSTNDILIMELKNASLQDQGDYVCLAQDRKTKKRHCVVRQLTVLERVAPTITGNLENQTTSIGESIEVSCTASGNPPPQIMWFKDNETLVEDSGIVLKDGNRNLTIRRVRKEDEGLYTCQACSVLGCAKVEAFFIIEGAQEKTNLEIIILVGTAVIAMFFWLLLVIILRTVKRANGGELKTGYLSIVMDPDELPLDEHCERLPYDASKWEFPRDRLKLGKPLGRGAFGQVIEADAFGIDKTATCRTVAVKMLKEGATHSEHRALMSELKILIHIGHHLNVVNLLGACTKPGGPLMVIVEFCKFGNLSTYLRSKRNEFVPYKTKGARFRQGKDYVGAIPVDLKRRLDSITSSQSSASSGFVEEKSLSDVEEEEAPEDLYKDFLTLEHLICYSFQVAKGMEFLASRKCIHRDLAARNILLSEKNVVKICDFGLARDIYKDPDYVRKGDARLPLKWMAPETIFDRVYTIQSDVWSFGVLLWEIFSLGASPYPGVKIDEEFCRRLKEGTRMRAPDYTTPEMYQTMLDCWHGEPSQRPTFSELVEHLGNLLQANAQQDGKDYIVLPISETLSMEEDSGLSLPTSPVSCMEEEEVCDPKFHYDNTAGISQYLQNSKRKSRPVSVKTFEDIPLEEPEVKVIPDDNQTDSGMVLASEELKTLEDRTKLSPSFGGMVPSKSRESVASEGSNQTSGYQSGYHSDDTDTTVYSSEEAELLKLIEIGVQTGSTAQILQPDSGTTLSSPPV

- binding result: no binding (tested: 100 nM)
B1: His-tagged gremlin-1 (R&D Systems) (ligand, UniProt O60565 25-184, looked up)
chain: KKKGSQGAIPPPDKAQHNDSEQTQSPQQPGSRNRGRGQGRGTAMPGEEVLESSQEALHVTERKYLKRDWCKTQPLKQTIHEEGCNSRTIINRFCYGQCNSFYIPRHIRKEEGSFQSCSFCKPKKFTTMMVTLNCPELQPPTKKKRVTRVKQCRCISIDLD
notes: Commercial protein; not shown: His tag
